Literature values, collected in publication PMC2645924.

Assays:
Cys165 = Cys165 (UniProt position 166, HPGEVCPAKWK); test: chemical modification; details: Reduced mutant proteins
Cys46 = Cys46 (UniProt position 47, DFTFVCPTELG); test: chemical modification; details: Reduced mutant proteins
Cys32 = Cys32 (UniProt position 33, FWAEWCGPCKM)

Substance: AhpC C46S mutant (only C165 remains) (Salmonella typhimurium; C46S)
- pKa (Cys165): 8.7

Substance: AhpC C165S mutant (only C46 remains) (Salmonella typhimurium; C165S)
- pKa (Cys46): less than 5

Substance: Thioredoxin (Escherichia coli)
- pKa (Cys32): 6.7 – 7.1
